The values below come from PMC10716038, “Talin and kindlin use integrin tail allostery and direct binding to activate integrins” (Nature Structural & Molecular Biology, 2023).

One experiment addresses T1, TLN1-F3^K402E (UniProt P26039 305-405, K402E).
T1 construct: source: E. coli (DE3) Rosetta 2, purified (IMAC, SEC); not shown: His10, N-terminal, cleaved; SUMO, N-terminal, cleaved
The experiment in a line: NMR titration; isotope-labelled β1-CT observed; TLN1-F3 and ΔKIND2 (wild type or K402E / Y13A) added together, ternary complex; 20 mM Tris, 200 mM NaCl, 1 mM DTT, pH 7.5, 298 K. To be noted: both partners purified.

The target of experiment [1] is T2, F3 domain of TLN1 (TLN1-F3) (UniProt P26039 305-405).
T2 construct: Used unlabelled, 15N-labelled or partially deuterated in NMR; also called T1-F3; source: E. coli (DE3) Rosetta 2, purified (IMAC, SEC); not shown: His10, N-terminal, cleaved; SUMO, N-terminal, cleaved
The experiment is described as follows: NMR titration; isotope-labelled β1-CT observed (1H-15N HSQC, 1H-13C methyl correlations); unlabelled TLN1-F3 or ΔKIND2 added alone at increasing stoichiometries; 20 mM Tris, 200 mM NaCl, 1 mM DTT, pH 7.5, 298 K. The conditions noted are these: both partners purified.

The target of experiment [2] is T3, F3 domain of TLN2 (TLN2-F3) (UniProt Q71LX4 311-408).
T3 chain: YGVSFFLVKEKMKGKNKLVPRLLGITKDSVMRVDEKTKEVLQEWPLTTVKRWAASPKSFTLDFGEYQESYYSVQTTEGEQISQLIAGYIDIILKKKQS
The experiment is described as follows: MST.

Experiment [3] addresses T4, KIND2 lacking the flexible loop in F1 and the PH domain (ΔKIND2).
T4 chain: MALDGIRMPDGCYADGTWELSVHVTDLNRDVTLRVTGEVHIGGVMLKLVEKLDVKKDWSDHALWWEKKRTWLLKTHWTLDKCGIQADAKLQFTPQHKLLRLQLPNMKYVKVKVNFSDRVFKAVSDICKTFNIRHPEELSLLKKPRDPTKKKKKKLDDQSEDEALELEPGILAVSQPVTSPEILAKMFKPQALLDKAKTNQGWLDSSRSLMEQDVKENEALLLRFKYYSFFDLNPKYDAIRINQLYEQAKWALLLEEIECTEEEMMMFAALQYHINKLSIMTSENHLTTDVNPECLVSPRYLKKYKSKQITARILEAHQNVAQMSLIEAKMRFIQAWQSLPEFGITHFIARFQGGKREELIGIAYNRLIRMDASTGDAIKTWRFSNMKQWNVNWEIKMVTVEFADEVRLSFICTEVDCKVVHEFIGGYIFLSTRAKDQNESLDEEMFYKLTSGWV
The experiment in a line: MST.

The target in experiment [4] is T5, F3 domain of TLN1 (TLN1-F3) (UniProt P26039 305-405).
T5 chain: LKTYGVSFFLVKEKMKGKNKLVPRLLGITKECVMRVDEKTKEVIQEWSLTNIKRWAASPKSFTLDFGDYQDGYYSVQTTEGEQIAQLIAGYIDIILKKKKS
The experiment in a line: MST.

Experiment [5] has as its target T6, talin-1 head domain (THD1) (UniProt P26039 1-405).
T6 construct: talin-1 (TLN1) head domain (F0-F3), residues 1-405; In FC-RDA a copy labelled with ATTO 565 (565–THD1) was the reporter; also called 565–THD1; source: E. coli (DE3) Rosetta 2, purified (IMAC, SEC); not shown: His10, N-terminal, cleaved; SUMO, N-terminal, cleaved
The experiment is described as follows: MST; ATTO 488-labelled β-CT peptide (50–200 nM) held constant, one unlabelled protein titrated; 20 mM Tris pH 7.5, 200 mM NaCl, 1 mM TCEP, 0.05% Tween-20; apparent affinities (near-saturation only). The conditions noted are these: both partners purified.

Experiment [6] concerns the target T7, talin-2 head domain (THD2) (UniProt Q71LX4 1-408).
T7 construct: talin-2 (TLN2) head domain, residues 1-408; source: E. coli (DE3) Rosetta 2, purified (IMAC, SEC); not shown: His10, N-terminal, cleaved; SUMO, N-terminal, cleaved
The experiment is described as above. To be noted: both partners purified.

Experiment [7] concerns the target T8, THD1^K402E (UniProt P26039 1-405, K402E).
T8 construct: talin-1 (TLN1) head domain, residues 1-405, with K402E; In FC-RDA a copy labelled with ATTO 565 was the reporter; also called 565–THD1^K402E; source: E. coli (DE3) Rosetta 2, purified (IMAC, SEC); not shown: His10, N-terminal, cleaved; SUMO, N-terminal, cleaved
Described as above. The conditions noted are these: both partners purified.

Experiment [8] has as its target T9, kindlin-2 (KIND2) (UniProt Q8CIB5 1-680).
T9 construct: kindlin-2 (KIND2) without the deletions of ΔKIND2; In FC-RDA a copy labelled with Alexa 647 (647–KIND2) was the reporter; also called 647–KIND2; source: E. coli Rosetta, purified (IMAC, SEC); not shown: His10, N-terminal, cleaved; SUMO, N-terminal, cleaved
T9 sequence (looked up): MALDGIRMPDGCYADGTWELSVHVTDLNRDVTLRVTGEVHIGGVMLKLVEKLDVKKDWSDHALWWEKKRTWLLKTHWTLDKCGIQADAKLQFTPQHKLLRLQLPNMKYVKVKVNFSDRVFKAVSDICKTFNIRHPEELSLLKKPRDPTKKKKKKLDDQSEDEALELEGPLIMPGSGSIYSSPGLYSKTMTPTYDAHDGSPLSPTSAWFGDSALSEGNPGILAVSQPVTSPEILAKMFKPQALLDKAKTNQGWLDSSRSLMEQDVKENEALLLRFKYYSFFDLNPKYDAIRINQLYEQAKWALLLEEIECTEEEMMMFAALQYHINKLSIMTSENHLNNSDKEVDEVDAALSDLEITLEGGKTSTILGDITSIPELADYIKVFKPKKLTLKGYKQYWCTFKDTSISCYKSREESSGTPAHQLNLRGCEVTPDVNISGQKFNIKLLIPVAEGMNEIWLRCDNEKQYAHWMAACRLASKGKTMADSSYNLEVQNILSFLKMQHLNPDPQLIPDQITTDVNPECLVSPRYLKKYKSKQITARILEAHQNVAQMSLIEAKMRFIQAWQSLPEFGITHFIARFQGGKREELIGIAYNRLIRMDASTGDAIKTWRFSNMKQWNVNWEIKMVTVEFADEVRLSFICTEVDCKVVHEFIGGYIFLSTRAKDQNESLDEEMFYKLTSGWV
The description is as above. The conditions noted are these: both partners purified.

In experiment [9] the target is T10, KIND2^Y13A (UniProt Q8CIB5 1-680, Y13A).
T10 construct: kindlin-2 (KIND2) with Y13A; In FC-RDA a copy labelled with Alexa 647 was the reporter; also called 647–KIND2^Y13A; source: E. coli Rosetta, purified (IMAC, SEC); not shown: His10, N-terminal, cleaved; SUMO, N-terminal, cleaved
T10 sequence (looked up): T9 sequence (looked up) with Y13A
The description is as above. The conditions noted are these: both partners purified.

The target in experiment [10] is T6, talin-1 head domain (THD1). The experiment is described as follows: flow cytometry-based reporter-displacement assay (FC-RDA) on beads; biotinylated TM–CT in nanodiscs (10% PIP2 or PIP3, 90% DMPC) on streptavidin Dynabeads; reporters 100 nM 565–THD1 or 50 nM 647–KIND2; unlabelled THD1 or KIND2 titrated; 20 mM Tris pH 7.5, 200 mM NaCl, 10 min at room temperature; the lipids add to the binding. To be noted: both partners purified. A general note: A flow cytometer gives signals particle by particle.

The target of experiment [11] is T8, THD1^K402E. The description is as above. The conditions noted are these: both partners purified.
In experiment [12] the target is T9, kindlin-2 (KIND2). Described as above. The conditions noted are these: both partners purified.
Experiment [13] has as its target T10, KIND2^Y13A. The description is as above. The conditions noted are these: both partners purified.

Substitutions are numbered along the chain they refer to. “And” between values parts separate entries of the source, which are not always exact repeats. Equal entries are not always repeated. No end group written: not given here.

T8 sequence (P26039 1-405 K402E): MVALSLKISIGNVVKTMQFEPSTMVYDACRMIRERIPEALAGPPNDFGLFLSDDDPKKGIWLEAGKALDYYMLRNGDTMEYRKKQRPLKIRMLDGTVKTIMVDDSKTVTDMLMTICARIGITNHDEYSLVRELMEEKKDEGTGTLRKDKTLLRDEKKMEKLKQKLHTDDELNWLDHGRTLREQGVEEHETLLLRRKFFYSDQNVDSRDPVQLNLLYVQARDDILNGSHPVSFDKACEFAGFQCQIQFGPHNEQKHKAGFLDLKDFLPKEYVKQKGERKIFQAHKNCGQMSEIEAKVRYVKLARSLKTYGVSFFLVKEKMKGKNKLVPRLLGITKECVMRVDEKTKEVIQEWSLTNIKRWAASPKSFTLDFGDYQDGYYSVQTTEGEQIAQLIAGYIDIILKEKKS

B1: integrin β1A cytoplasmic tail (β1-CT), recombinant (peptide, UniProt P05556-1 758-798, looked up)
chain: HDRREFAKFEKEKMNAKWDTGENPIYKSAVTTVVNPKYEGK
notes: integrin β1, splice isoform A, cytoplasmic tail, residues 758-798; DNA synthesised; 15N-, 13C,15N- or 2H,13C,15N-labelled when observed by NMR; also called β1A-CT; integrin-β1-CT; source: E. coli (DE3) Rosetta 2 in M9 medium, purified (IMAC, cation exchange); not shown: His10, N-terminal, cleaved; SUMO, N-terminal, cleaved
As to B1, the binding result (with TLN1-F3^K402E; in [1]) was “binds” throughout.

B2: ATTO 488-labelled β3-CT (488–β3-CT) (peptide, UniProt O54890 741-787, looked up)
peptide: {ATTO 488}-KLLITIHDRKEFAKFEEERARAKWDTANNPLYKEATSTFTNITYRGT
notes: integrin β3 cytoplasmic tail; source: synthetic peptide (MPIB Core Facility)
Turning to B2, the Kd is 98 µM in experiment [2]; 6.8 µM in [3]; 106 µM in experiment [4]; 108 µM and 105 µM in experiment [5]; 39 µM in [6]; 34 µM with THD1^K402E [7]. In addition, the Kd with kindlin-2 (KIND2) [8] and in the experiment with KIND2^Y13A [9] was 9 µM each time.

B3: β3 transmembrane and cytoplasmic tail polypeptide (β3-TM–CT) in nanodiscs (domain or fragment, UniProt O54890 715-787, looked up)
chain: GPDILVVLLSVMGAILLIGLATLLIWKLLITIHDRKEFAKFEEERARAKWDTANNPLYKEATSTFTNITYRGT
modifications: biotin (biotin-maleimide)
notes: integrin β3 transmembrane helix and cytoplasmic tail, residues 715-787; Embedded in nanodiscs of 10% PIP2 or PIP3 and 90% DMPC; held on streptavidin beads by the biotin; source: E. coli BL21 (DE3) Rosetta 2, inclusion bodies, purified (IMAC, cation exchange), put into MSP2N2 nanodiscs
As for B3, the binding result (in [10]; with THD1^K402E [11]; with kindlin-2 (KIND2) [12]; with KIND2^Y13A [13]) was “binds” throughout.
